{"source": "the DeepSol protein solubility set"}
{"test": "soluble on expression in E. coli; label from the status in PepcDB or PDB records"}
{"sequence": "MEEPINVLLLGMDIGDTSDVSNKDAKRTDTIILANFDPITKEAKLISIPRDTRVKIGGKSQKINAAYPIGGEKLVKQLVGNILGVKVDYVVKVDYEGFRGIIDAIGGIDMYIEQDMNYDDPGQDLHIHFNKGETVHLDGKKAEEFFRWRKNNDGTGLVNGDVDRIKNQQKFINAVIDKVLSVSTITKIDSIAEILNKNIETNIPLDVTVAYGLKGLETDKNNIKMMTLPGEGKYVGNVSYYIPDEKATKELRSQLNSSNLSGRKNVIPSAARGDLSIKVLNCTKINGLAANVQKQLNENGYDKVDVGNGDPREKSEILIKDESSRAFMENDLKIENIKKGISSKYDGNGTYDVVILLGKDFKNFGEMKLEHHHHHH", "soluble on expression in E. coli": "soluble"}
{"sequence": "MEFEFIKNTLLGEYAVRCNMEHQIVGRWLQEEIGQDLAKLKHVLTLIDKAEQSPAQEFLWTGREISLLVQGDEITVQENALAYESEHELETDFALYDSESIAACGREDFVALLTQWQSFIQNQGRF", "soluble on expression in E. coli": "not soluble"}
{"sequence": "MEFIVCNGCGCSPSKRQFFITACSHVFCETCRTTPTADFCHLCKIPTKTLKMDASLPKNVKKMFGDVGVMSTDIHKRLARVIGFQKIQKSIQLKMENKKSVMRKEQTKKVEKKTEEMHCQLSKLTSFEENNRKKLEDIERENEKLRNLISALELKVASSRDIDDDEFFMQGTPTSSNPSVAGSDVDNDELLDYDLLGLRNRSDSSSSNCSSQSNRGGSLF", "soluble on expression in E. coli": "not soluble"}
{"sequence": "MEFKDFPLKPEILEALHGRGLTTPTPIQAAALPLALEGKDLIGQARTGTGKTLAFALPIAERLAPSQERGRKPRALVLTPTRELALQVASELTAVAPHLKVVAVYGGTGYGKQKEALLRGADAVVATPGRALDYLRQGVLDLSRVEVAVLDEADEMLSMGFEEEVEALLSATPPSRQTLLFSATLPSWAKRLAERYMKNPVLINVIK", "soluble on expression in E. coli": "soluble"}
{"sequence": "MEFKEYKGKNVDEAITNACIDLGIEAAKLEYEVIEKGSNGFLGIGSKPAIIKAKKNQSVEDIAREFLNKVFTAMELTVKIDIKIVENEKENIVNINIIGEDMGILIGKRGQTLDSLQYLVSLVINKECEKFNRVKLDTENYRERRKATLENLARNISLKVKRIKKPVALEPMNPYERRIIHSALQNDKFCTTKSEGDEPYRHVVVMLKKDAR", "soluble on expression in E. coli": "not soluble"}
{"sequence": "MEFRQLKYFIAVAEAGNMAAAAKRLHVSQPPITRQMQALEADLGVVLLERSHRGIELTAAGHAFLEDARRILELAGRSGDRSRAAARGDVGELSVAYFGTPIYRSLPLLLRAFLTSTPTATVSLTHMTKDEQVEGLLAGTIHVGFSRFFPRHPGIEIVNIAQEDLYLAVHRSQSGKFGKTCKLADLRAVELTLFPRGGRPSFADEVIGLFKHAGIEPRIARVVEDATAALALTMAGAASSIVPASVAAIRWPDIAFARIVGTRVKVPISCIFRKEKQPPILARFVEHVRRSAKD", "soluble on expression in E. coli": "soluble"}
{"sequence": "MEFRVYAGREELAGLVKPMRGGDVEIRIQPVERKVLEFVPLKAETAIEERKSIIVGLDPGITVGIAAIDLDGNIISVYSEKNMALSEIVRFISELGHPIIVATDVNPAPGLVEKIARSFKAQLFVPRESLKVEEKNELLKNLGISVSDDHQRDALEHHHHHH", "soluble on expression in E. coli": "not soluble"}
{"sequence": "MEFTDIAMELSKKAWQASFHHPFILQLQEGNLEPAIFRYYLIQDAYYLKAFSEIYHLLADKTSNQEMKRLLKQNAQGLVEGELFIRQQFFKELEISDQEMEQHPIAPTCYHYISHIYRQFAEPNLAIAFASLLPCPWLYHDIGKSLNLKPSPNPLYQQWIETYITDELEQQIREEGALVNQLYRESDETDKQKMLDAFHISVHMEAKFWEMAYQHQTWKSDLQSLEKGEEMAGDPLEHHHHHH", "soluble on expression in E. coli": "soluble"}
{"sequence": "MEGFGMPKLIISGRGGSGKSTLVTLIAHTLKEQKKRVLVVDSDESNIGLSGILGIEPAEKTLMDYLGGKPRVMKKLRSMIRDGETEPELFREKFDLESLSQEFVCWVGSLGLMQIGKIDHAMEGCACPMGAVTRDFLNHVRLEEDQWVLVDTEAGVEHFGRGIVEGADAVVMVVDPSSDAVLLAEKAAKLTHEADKRFGVILNKIDEETEPILTELLTSEGNEIKGVLPYSPAITKMNLKGESLGAYAVKNEVDEIIRELMKCLEHHHHHH", "soluble on expression in E. coli": "not soluble"}
